For one series, the target named is T1, VEGFR2 (Homo sapiens, UniProt P35968).
T1 construct: Human retinal endothelial cells (hREC) that express VEGFR2; endogenous in cells; host or cells: human retinal endothelial cells (hREC)
Kind of series: VEGFR2 activation (p-VEGFR2 western blot) in transfected hREC. The conditions noted are these: hREC transfected with expression construct; lysate at 24 and 48 hours post transfection; vs GFP control. It is filed as cell-based. How it is done:
Human retinal endothelial cells (hREC) that express VEGFR2 were transfected with eVEGF-38 or eVEGF-53, or VEGF189, or control GFP (ctr) expression construct and total cell lysate was collected at 24 and 48 hours post transfection. Activation of VEGFR2 was determined by the levels of VEGFR2 phosphorylation (p-VEGFR2). Data=mean±SD, **P<0.01 by unpaired t-test, n=3 independent western blot assays.
(§1) eVEGF-38 and eVEGF-53 localize to the cell membrane and comprise myc-tags. VEGF189 was constructed with a myc-tag. The constructs were packaged into adeno-associated virus serotype 2 (AAV2) for efficient transduction and expression in human microvascular endothelial cells (hREC) and RGC. Transgenes expression was measured by western blot, qPCR and immunostaining. In hREC, VEGFR2, VCAM-1, E-selectin and tissue factor expression were measured by immunostaining or qPCR. VEGFR2 signaling, axon length, and synapse formation in RGC were measured by immunostaining. RGC survival was measured by TUNEL staining and intracellular [Ca2+] was measured using fura2/AM calcium imaging.

The test system of series [1] is human microvascular endothelial cells (hREC). Briefly: Pro-inflammatory markers (VCAM-1, E-selectin, tissue factor) in hREC by immunostaining or qPCR. Format: cell-based. The conditions noted are these: compared with GFP/AAV2 control, p<0.05. The method, then: as §1
On the technique in general: In qPCR the cycle at which signal appears reflects the starting amount.

The test system of series [2] is primary mouse RGC. Kind of series: Survival of primary mouse RGC in culture. The conditions noted are these: control 22% survival, P<0.001. It is filed as cell-based. The method, then: FIG. 3A is a bar graph showing the results from experiments using primary mouse RGC isolated from P3 pups were transduced with different AAVs to overexpress eVEGF-38, eVEGF-53, VEGF189, or the control GFP on the day of isolation (day 0), or treated with exogenous recombinant VEGF121 protein on day 2. The number viable RGC was determined by immunostaining for beta III tubulin while total cell number per field was determined by DAPI staining on day 3 of culture.
FIG. 3B is a bar graph showing that the majority of the viable RGC were expressing the eVEGF-38, eVEGF-53, or VEGF189, whereas the GFP-expressing RGC were not protected in culture. Data=mean±SD, ***P<0.001 by unpaired t-test, n=15 different fields total (5 fields/well) from three independent wells of primary RGC.
as §1

Series [3] relates to primary mouse RGC. Briefly: H2O2-induced cell death of primary mouse RGC (TUNEL staining). Format: cell-based. The conditions noted are these: P<0.05. The method, then:
as §1, with “Cell death was analyzed by TUNEL staining” for “eVEGF-38”, “transgene expression by immunostaining. Percentage of viable RGC was determined by: (TUNEL-negative RGC with transgenes expression)/(total” for “eVEGF-53 localize to the”, “number by DAPI staining). […]” for “membrane and comprise myc-tags. VEGF189 was constructed with a myc-tag.”

Series [4] relates to primary mouse RGC. Kind of series: Axon and neurite formation in primary mouse RGC. It is filed as cell-based. The conditions noted are these: for average axon length per RGC / average number of neurites per RGC / percentage of RGC with axons longer than 3× cell body length / average number of branch points of neurite per RGC: primary RGC; for average axon length per RGC / average number of neurites per RGC / percentage of RGC with axons longer than 3× cell body length: compared to the GFP control; for average number of branch points of neurite per RGC: compared to control.
From the text: FIG. 6 is a series of photomicrographs showing correlative fluorescence and electron microscopy showing extra long axons (>1400 μm) from some of the eVEGF-38 overexpressing primary RGC. Green arrows, eVEGF-38 overexpressing cells; blue arrows, untransduced primary mouse RGC.
FIGS. 7A and 7B are a series of bar graphs and dot plots showing that VEGFR2 signaling is required for the formation of long axons by primary RGC overexpressing eVEGF-38, eVEGF-53, and VEGF189. […] Recombinant VEGF121 protein was added to a final concentration of 2.5 nM. […] Labels: 38, eVEGF-38; 53, eVEGF-53; 189, VEGF189; UT, untreated. Data=mean±SD, n=15 fields from 3 independent wells per group, *P<0.05, **P<0.01, ***P<0.001, one-way ANOVA.
as §1

For another series, the system named is primary RGC. Briefly: Synapse formation / synaptophysin expression in primary RGC. It is filed as cell-based, mouse. The conditions noted are these: for synaptic vesicle marker synaptophysin in axons and neurites: primary RGC overexpressing the transgene. How it is done:
as §1

In another series the test system is RGC. Briefly: Intracellular [Ca2+] in RGC by fura2/AM calcium imaging. The conditions noted are these: upon carbachol and NMDA stimulation; compared to control. It is filed as cell-based, mouse. How it is done:
as §1

Series [5] relates to primary mouse RGC. Kind of series: Gene expression analysis of primary mouse RGC. It is filed as cell-based. The conditions noted are these: overexpressing primary mouse RGC; vs GFP control. The text has this:
FIG. 9 is a series of bar graphs showing that overexpression of eVEGF-38 in primary RGC suppresses genes that are associated with cell death and suppression of axon formation, but induces genes that are associated with axon growth and neuronal function. Label: 38, eVEGF-38; Ctr, GFP control. Data=mean±SD, n=3 independent wells of primary RGC, *P<0.05, **P<0.01, ***P<0.001 by unpaired t-test.
Furthermore, eVEGF-38 and eVEGF-53 chimeric polypeptides and VEGF189 expression enhanced axons and neurites formation of primary mouse RGCs (FIGS. 5A-C, FIG. 6, and FIGS. 7A-B), supported synaptogenesis and likely neuronal function (FIG. 8), which are consistent with the role of VEGF in promoting neurogenesis and neuronal function in vitro and in vivo. […] Together, the data support overexpression of eVEGF-38, eVEGF-53 and the natural VEGF189 isoform in RGC promotes cell-autonomous RGC survival, axon growth and regeneration, and neuronal function, and is useful and a therapeutic agent for treatment of glaucoma. The chimeric polypeptides can be used therapeutically via a gene therapy approach (AAV) for eVEGF-38, eVEGF-53 and VEGF189. Activity is tested in animal models of glaucoma and optic nerve injury/regeneration.

T1 sequence (P35968 20-1356): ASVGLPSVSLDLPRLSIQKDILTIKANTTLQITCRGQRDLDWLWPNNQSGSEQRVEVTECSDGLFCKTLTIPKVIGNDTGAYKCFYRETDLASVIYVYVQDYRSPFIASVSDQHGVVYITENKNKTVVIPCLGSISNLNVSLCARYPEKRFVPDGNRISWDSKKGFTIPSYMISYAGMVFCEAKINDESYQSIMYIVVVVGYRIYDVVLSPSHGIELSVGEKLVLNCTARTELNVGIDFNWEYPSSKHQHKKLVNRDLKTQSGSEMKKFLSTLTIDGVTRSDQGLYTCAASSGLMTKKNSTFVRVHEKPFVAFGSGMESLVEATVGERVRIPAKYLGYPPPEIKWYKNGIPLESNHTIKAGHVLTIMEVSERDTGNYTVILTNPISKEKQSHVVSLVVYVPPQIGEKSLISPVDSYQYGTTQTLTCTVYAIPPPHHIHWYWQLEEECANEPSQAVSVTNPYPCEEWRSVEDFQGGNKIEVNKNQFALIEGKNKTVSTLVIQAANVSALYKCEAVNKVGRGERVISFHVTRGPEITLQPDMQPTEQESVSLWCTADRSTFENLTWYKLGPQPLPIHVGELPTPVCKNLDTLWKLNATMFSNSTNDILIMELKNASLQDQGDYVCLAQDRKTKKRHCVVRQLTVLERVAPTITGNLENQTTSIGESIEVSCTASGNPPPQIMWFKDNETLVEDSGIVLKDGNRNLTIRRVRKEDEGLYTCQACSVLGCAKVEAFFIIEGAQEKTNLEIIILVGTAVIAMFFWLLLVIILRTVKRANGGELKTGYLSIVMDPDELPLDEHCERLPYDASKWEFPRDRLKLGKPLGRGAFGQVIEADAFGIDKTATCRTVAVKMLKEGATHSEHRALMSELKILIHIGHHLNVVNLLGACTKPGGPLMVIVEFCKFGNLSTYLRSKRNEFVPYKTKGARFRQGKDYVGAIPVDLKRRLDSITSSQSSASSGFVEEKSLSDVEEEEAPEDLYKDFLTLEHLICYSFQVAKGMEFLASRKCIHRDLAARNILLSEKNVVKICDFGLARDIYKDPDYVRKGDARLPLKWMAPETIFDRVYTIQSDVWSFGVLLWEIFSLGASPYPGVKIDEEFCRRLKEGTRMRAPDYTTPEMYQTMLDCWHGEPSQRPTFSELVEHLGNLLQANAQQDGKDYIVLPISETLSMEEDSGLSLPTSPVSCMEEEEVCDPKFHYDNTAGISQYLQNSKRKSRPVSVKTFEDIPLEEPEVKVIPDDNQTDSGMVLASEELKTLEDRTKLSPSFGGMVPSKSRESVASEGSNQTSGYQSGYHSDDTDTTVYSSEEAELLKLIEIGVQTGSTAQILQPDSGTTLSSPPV

B1: VEGF189: natural VEGF189 isoform with strong heparin-binding domain, constructed with a myc-tag (SEQ ID NO: 3), tested for comparison (protein)
chain: MNFLLSWVHWSLALLLYLHHAKWSQAAPMAEGGGQNHHEVVKFMDVYQRSYCHPIETLVDIFQEYPDEIEYIFKPSCVPLMRCGGCCNDEGLECVPTEESNITMQIMRIKPHQGQHIGEMSFLQHNKCECRPKKDRARQEKKSVRGKGKGQKRKRKKSRYKSWSVPCGPCSERRKHLFVQDPQTCKCSCKNTDSRCKARQLELNERTCRCDKPRRKLGNGNGEQKLISEEDLGN
modifications: myc tag
As to B1, in the series with VEGFR2, the “VEGFR2 activation by levels of VEGFR2 phosphorylation (p-VEGFR2)” value (shortened to “VEGFR2 activation by levels … (p-VEGFR2)”) is recorded as “can sustain VEGFR2 activation in a cell autonomous fashion”. The pro-inflammatory markers entry in series [1] was “increased”. The RGC survival with primary mouse RGC [2] came out at 50%. Moreover, the “increased RGC survival upon H2O2 treatment compared to control” value in the series with primary mouse RGC [3] stood at 18%. Also, in the series with primary mouse RGC [4], the “average axon length per RGC” value is “significantly increases”, the “average number of neurites per RGC” value is given as “significantly increases” and the “percentage of RGC with axons longer than 3× cell body length” value (from here on “percentage of RGC”) is “significantly increases”. For the same molecule, the synapse formation entry with primary RGC (RGC) is on record as “promoted synapse formation”. In addition, in the series on primary RGC, the “synaptic vesicle marker synaptophysin in axons and neurites” value (“synaptic vesicle marker synaptophysin” below) is listed as “also express synaptic vesicle marker synaptophysin”.

B2: eVEGF-53: engineered covalently linked dimer of VEGF121 isoform with a 53 amino acid glycine-rich linker connected to a GPI anchor (SEQ ID NO: 2) (protein)
chain: MNFLLSWVHWSLALLLYLHHAKWSQAAPMAEGGGQNHHEVVKFMDVYQRSYCHPIETLVDIFQEYPDEIEYIFKPSCVPLMRCGGCCNDEGLECVPTEESNITMQIMRIKPHQGQHIGEMSFLQHNKCECRPKKDRARQEKCDKPRRGGSSGGSSGGSGGGTGGGSGAPMAEGGGQNHHEVVKFMDVYQRSYCHPIETLVDIFQEYPDEIEYIFKPSCVPLMRCGGCCNDEGLECVPTEESNITMQIMRIKPHQGQHIGEMSFLQHNKCECRPKKDRARQEKCDKPRRGNGNGNGNGNGNGNEQKLISEEDLKLAAAGNGNGNGNGNGNGNGDGNGGALCNGAGFATPVTLALVPALLATFWSLL
On to B2, for which the “VEGFR2 activation by levels … (p-VEGFR2)” value with VEGFR2 is given as “can sustain VEGFR2 activation in a cell autonomous fashion”. The same molecule came in with an RGC survival in the series with primary mouse RGC [2] of 48%. The “increased RGC survival upon H2O2 treatment compared to control” value in the series on primary mouse RGC [3] stood at 15%. In the series on primary mouse RGC [4], the “average number of branch points of neurite per RGC” value was “significantly increase”, the “average axon length per RGC” value was “significantly increases”, the “average number of neurites per RGC” value is listed as “significantly increases” and the “percentage of RGC” value is given as “significantly increases”. Also, the “synaptic vesicle marker synaptophysin” value in the series on primary RGC is given as “also express synaptic vesicle marker synaptophysin”. In the series on RGC, the “intracellular [Ca2+]” value is “decreased”.

B3: eVEGF-38: engineered covalently linked dimer of VEGF121 isoform with a 38 amino acid glycine-rich linker connected to a GPI anchor (SEQ ID NO: 1) (protein)
chain: MNFLLSWVHWSLALLLYLHHAKWSQAAPMAEGGGQNHHEVVKFMDVYQRSYCHPIETLVDIFQEYPDEIEYIFKPSCVPLMRCGGCCNDEGLECVPTEESNITMQIMRIKPHQGQHIGEMSFLQHNKCECRPKKDRARQEKCDKPRRGGSSGGSSGGSGGGTGGGSGAPMAEGGGQNHHEVVKFMDVYQRSYCHPIETLVDIFQEYPDEIEYIFKPSCVPLMRCGGCCNDEGLECVPTEESNITMQIMRIKPHQGQHIGEMSFLQHNKCECRPKKDRARQEKCDKPRRGNGNGEQKLISEEDLKLAAAGNGGNGNGNGDGNGALCNGAGFATPVTLALVPALLATFWSLL
For B3, the “VEGFR2 activation by levels … (p-VEGFR2)” value with VEGFR2 is given as “can sustain VEGFR2 activation in a cell autonomous fashion”. Besides, the RGC survival in the series with primary mouse RGC [2] is 45%. For the same molecule, the “increased RGC survival upon H2O2 treatment compared to control” value in the series with primary mouse RGC [3] is listed as 10%. Further, in the series with primary mouse RGC [4], the “average number of branch points of neurite per RGC” value was “significantly increase”, the “average axon length per RGC” value was “significantly increases”, the “average number of neurites per RGC” value is “significantly increases” and the “percentage of RGC” value is given as “significantly increases”. For the same molecule, the “length of extra long axons” value in the series with primary mouse RGC [4] (some of the overexpressing primary RGC, correlative fluorescence and electron microscopy) is recorded as over 1400 μm. Moreover, the “synaptic vesicle marker synaptophysin” value in the series with primary RGC is on record as “also express synaptic vesicle marker synaptophysin”. For the same molecule, the “intracellular [Ca2+]” value in the series with RGC was “decreased”. Besides, in the series on primary mouse RGC [5], the “genes involved in apoptosis and cell death (bax/bcl2 ratio) and inhibition of axon formation (Tsc1)” value was “down-regulation”; the “genes involved in axon growth (KLF7), neurogenesis (Microtubule-associated protein 1B) and synaptic vesicle trafficking (vesicle-associated membrane protein 3)” value is reported as “up-regulation”.
